Test results as given in patent US20140274782A1, “AFFINITY REAGENTS AND METHODS FOR DETECTION, PURIFICATION, AND PROTEOMIC ANALYSIS OF METHYLATED PROTEINS” (The Board of Trustees of the Leland Stanford Junior …, priority 2013, published 2014).

Legend:
3×MBT domain of L3MBTL1 = experiment: Triple SILAC pull-down, 3xMBT/3xMBTD355N ratio (cytoplasmic, nuclear and chromatin fractions of 293T cells); format: binding, human; details: for Protein Ratios 3xMBT/D355N: pull-down by 3xMBT vs 3xMBTD355N; for 3xMBT/D355N UNC Heavy: experiment with UNC0638 in heavy SILAC media; for 3xMBT/D355N UNC Light: experiment with UNC0638 in light SILAC media;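 as to all read-outs here: proteins quantified with MaxQuant, requiring at least two unique peptides and quantification in both label directions, normalized to the mean of proteins from a digested loading control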
G9a and GLP = target: T1, G9a and GLP (Homo sapiens, UniProt Q96KQ7+Q9H9B1); experiment: Triple SILAC pull-down after UNC0638 treatment of 293T cells, DMSO/UNC0638 ratio of protein captured by 3×MBT; format: cell-based; details: for Protein Ratios DMSO/UNC0638: SILAC ratio of protein captured by 3xMBT, 293T cells treated 24 hours with UNC0638 at 2.5 μM or DMSO; for Relative to UNC0638 UNC Heavy: UNC0638 in heavy SILAC media; for Relative to UNC0638 UNC Light: UNC0638 in light SILAC media; for Relative to UNC0638 Average: average of UNC Light and UNC Heavy experiments; for Candidate G9a/GLP target: reduced association with 3xMBT after UNC0638 treatment;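 as to all read-outs here: mass spectrometry (Q-Exactive) SILAC quantitation, DMSO/UNC0638 ratio computed after subtracting 3×MBTD355N mutant pull-down background, only proteins with at least twofold 3×MBT over mutant signal considered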
T1 construct: endogenous in cells; host or cells: HEK 293T
T1 sequence (Q96KQ7 2-1210 limits assumed): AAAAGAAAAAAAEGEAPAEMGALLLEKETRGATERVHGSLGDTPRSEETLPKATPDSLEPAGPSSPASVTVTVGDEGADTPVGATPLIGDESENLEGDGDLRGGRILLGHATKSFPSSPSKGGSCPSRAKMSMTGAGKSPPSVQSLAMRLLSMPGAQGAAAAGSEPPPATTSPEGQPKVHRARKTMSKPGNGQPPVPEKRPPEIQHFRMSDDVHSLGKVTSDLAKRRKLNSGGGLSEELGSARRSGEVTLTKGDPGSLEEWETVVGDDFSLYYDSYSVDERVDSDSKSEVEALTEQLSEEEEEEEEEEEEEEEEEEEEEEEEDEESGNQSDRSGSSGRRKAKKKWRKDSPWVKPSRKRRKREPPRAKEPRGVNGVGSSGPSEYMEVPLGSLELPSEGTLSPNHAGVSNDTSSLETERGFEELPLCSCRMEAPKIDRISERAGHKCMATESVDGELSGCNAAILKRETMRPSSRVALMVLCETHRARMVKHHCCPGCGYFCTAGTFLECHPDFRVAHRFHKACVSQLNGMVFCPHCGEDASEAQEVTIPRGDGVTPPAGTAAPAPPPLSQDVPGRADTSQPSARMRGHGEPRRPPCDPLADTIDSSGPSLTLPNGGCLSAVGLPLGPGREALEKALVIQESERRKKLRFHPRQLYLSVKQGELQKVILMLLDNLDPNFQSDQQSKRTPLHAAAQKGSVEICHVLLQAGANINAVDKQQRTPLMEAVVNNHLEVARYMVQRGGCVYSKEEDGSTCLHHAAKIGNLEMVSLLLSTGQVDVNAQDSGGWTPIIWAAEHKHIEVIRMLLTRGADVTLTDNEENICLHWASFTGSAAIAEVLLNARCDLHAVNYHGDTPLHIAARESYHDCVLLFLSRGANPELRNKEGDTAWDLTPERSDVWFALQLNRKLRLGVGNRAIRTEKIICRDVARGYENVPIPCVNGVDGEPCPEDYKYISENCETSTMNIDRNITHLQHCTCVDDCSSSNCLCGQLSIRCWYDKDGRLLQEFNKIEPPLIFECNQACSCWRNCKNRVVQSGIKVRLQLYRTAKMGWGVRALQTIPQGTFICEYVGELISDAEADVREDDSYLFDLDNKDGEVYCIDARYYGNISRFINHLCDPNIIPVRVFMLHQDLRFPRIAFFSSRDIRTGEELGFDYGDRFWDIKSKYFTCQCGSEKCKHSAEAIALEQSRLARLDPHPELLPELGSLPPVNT
T1 sequence (Q9H9B1 2-1298 limits assumed): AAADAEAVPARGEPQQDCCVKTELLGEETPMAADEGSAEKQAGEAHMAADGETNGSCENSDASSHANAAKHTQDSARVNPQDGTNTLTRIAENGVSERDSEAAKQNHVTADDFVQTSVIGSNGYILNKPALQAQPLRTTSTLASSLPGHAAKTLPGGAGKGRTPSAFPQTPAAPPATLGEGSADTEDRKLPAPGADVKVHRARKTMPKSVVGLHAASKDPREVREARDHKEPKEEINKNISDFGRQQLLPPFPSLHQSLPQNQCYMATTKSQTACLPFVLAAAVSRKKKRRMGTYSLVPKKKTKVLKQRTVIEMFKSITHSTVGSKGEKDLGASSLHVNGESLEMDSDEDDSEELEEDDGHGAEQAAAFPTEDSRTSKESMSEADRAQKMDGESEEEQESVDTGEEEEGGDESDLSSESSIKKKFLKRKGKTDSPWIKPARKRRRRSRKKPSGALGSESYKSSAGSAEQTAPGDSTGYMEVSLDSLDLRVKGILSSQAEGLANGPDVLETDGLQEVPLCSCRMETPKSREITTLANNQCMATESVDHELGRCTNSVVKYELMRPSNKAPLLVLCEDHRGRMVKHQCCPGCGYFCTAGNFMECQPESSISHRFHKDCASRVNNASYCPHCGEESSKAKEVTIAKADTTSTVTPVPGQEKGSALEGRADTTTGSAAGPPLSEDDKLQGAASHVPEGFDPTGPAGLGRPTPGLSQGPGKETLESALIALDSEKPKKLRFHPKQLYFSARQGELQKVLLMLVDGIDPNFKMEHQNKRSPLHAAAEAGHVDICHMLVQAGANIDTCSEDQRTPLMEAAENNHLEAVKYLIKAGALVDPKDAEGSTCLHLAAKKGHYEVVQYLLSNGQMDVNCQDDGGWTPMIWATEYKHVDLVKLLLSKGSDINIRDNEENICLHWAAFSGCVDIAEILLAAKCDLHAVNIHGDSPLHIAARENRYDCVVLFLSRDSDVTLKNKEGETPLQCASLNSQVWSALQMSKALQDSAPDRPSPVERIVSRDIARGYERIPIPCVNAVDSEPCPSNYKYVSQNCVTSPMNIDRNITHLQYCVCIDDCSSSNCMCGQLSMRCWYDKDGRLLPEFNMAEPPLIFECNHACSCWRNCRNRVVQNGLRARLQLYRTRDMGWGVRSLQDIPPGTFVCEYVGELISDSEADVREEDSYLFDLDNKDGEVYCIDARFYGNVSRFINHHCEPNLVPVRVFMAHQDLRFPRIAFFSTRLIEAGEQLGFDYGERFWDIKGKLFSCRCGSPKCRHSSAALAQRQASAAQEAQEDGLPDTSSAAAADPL

[1] = SILAC ratio 3xMBT vs 3xMBTD355N pull-down, 293T cells, all values in log base 2
[2] = SILAC ratio DMSO relative to UNC0638, pull-down with 3xMBT, all values in log base 2
[3] = SILAC ratio, pull-down 3xMBT vs 3xMBTD355N
[4] = SILAC ratio DMSO/UNC0638 of protein pulled down with 3xMBT

Substance | 3xMBT/D355N UNC Heavy (3×MBT domain of L3MBTL1; [3]) | 3xMBT/D355N UNC Light (3×MBT domain of L3MBTL1; [3]) | Relative to UNC0638 UNC Heavy (G9a and GLP; [4]) | Relative to UNC0638 UNC Light (G9a and GLP; [4]) | Relative to UNC0638 Average (G9a and GLP) | also measured
60S ribosomal protein L5 |  |  |  |  |  | Protein Ratios 3xMBT/D355N (3×MBT domain of L3MBTL1; SILAC ratio, 293T cells): 2.3; Protein Ratios DMSO/UNC0638 (G9a and GLP): 1.4
ABCF1 |  |  |  |  |  | 3xMBT/D355N UNC Heavy (3×MBT domain of L3MBTL1; [1]): 2.36 log base 2; 3xMBT/D355N UNC Light (3×MBT domain of L3MBTL1; [1]): 2.94 log base 2; Relative to UNC0638 UNC Heavy (G9a and GLP; [2]): 0.22 log base 2; Relative to UNC0638 UNC Light (G9a and GLP; [2]): −0.04 log base 2; Relative to UNC0638 Average (G9a and GLP; all values in log base 2): 0.09 log base 2
ANXA2 |  |  |  |  |  | 3xMBT/D355N UNC Heavy (3×MBT domain of L3MBTL1; [1]): 2.86 log base 2; 3xMBT/D355N UNC Light (3×MBT domain of L3MBTL1; [1]): 2.78 log base 2; Relative to UNC0638 UNC Heavy (G9a and GLP; [2]): 0.38 log base 2; Relative to UNC0638 UNC Light (G9a and GLP; [2]): −0.31 log base 2; Relative to UNC0638 Average (G9a and GLP; all values in log base 2): 0.04 log base 2
ATP-dependent DNA helicase Q1 |  |  |  |  |  | Protein Ratios 3xMBT/D355N (3×MBT domain of L3MBTL1; SILAC ratio, 293T cells): 18.8; Protein Ratios DMSO/UNC0638 (G9a and GLP): 1.4
BUB3 | 2.75 log base 2 | 3.26 log base 2 | 0.15 log base 2 | 0.14 log base 2 | 0.15 log base 2 | 
CAMK2D | 1.96 log base 2 | 2.82 log base 2 | 0.26 log base 2 | 0.27 log base 2 | 0.27 log base 2 | 
CD3EAP |  |  |  |  |  | 3xMBT/D355N UNC Heavy (3×MBT domain of L3MBTL1; [1]): 2.30 log base 2; 3xMBT/D355N UNC Light (3×MBT domain of L3MBTL1; [1]): 1.86 log base 2; Relative to UNC0638 UNC Heavy (G9a and GLP; [2]): −0.02 log base 2; Relative to UNC0638 UNC Light (G9a and GLP; [2]): 0.01 log base 2; Relative to UNC0638 Average (G9a and GLP; all values in log base 2): 0.00 log base 2
CFL1 | 2.43 log base 2 | 3.06 log base 2 | 0.19 log base 2 | 0.07 log base 2 | 0.13 log base 2 | 
CHD4 | 2.24 log base 2 | 3.63 log base 2 | 0.34 log base 2 | 0.14 log base 2 | 0.24 log base 2 | 
CKAP5 | 2.10 log base 2 | 1.30 log base 2 | 0.24 log base 2 | 0.06 log base 2 | 0.15 log base 2 | 
CLTC | 2.19 log base 2 | 2.98 log base 2 | 0.24 log base 2 | 0.65 log base 2 | 0.44 log base 2 | Candidate G9a/GLP target (G9a and GLP): ✓
CORO1C | 2.83 log base 2 | 3.30 log base 2 | 0.07 log base 2 | 0.26 log base 2 | 0.17 log base 2 | 
CSDA | 3.85 log base 2 | 3.10 log base 2 | 0.30 log base 2 | 0.73 log base 2 | 0.52 log base 2 | Candidate G9a/GLP target (G9a and GLP): ✓
CSNK2B |  |  |  |  |  | 3xMBT/D355N UNC Heavy (3×MBT domain of L3MBTL1; [1]): 2.83 log base 2; 3xMBT/D355N UNC Light (3×MBT domain of L3MBTL1; [1]): 2.65 log base 2; Relative to UNC0638 UNC Heavy (G9a and GLP; [2]): 0.21 log base 2; Relative to UNC0638 UNC Light (G9a and GLP; [2]): −0.01 log base 2; Relative to UNC0638 Average (G9a and GLP; all values in log base 2): 0.10 log base 2
CTBP2 | 1.97 log base 2 | 1.74 log base 2 | 0.50 log base 2 | 0.15 log base 2 | 0.32 log base 2 | 
Clathrin heavy chain 1 |  |  |  |  |  | Protein Ratios 3xMBT/D355N (3×MBT domain of L3MBTL1; SILAC ratio, 293T cells): 6.0; Protein Ratios DMSO/UNC0638 (G9a and GLP): 1.4
DDX6 | 3.18 log base 2 | 3.05 log base 2 | 0.14 log base 2 | 0.22 log base 2 | 0.18 log base 2 | 
DDX21 | 0.55 log base 2 | 1.00 log base 2 |  | 0.14 log base 2 | 0.14 log base 2 | 
DDX39A | 2.00 log base 2 | 1.53 log base 2 | 0.36 log base 2 | 0.01 log base 2 | 0.18 log base 2 | 
DHX9 | 3.27 log base 2 | 3.53 log base 2 | 0.08 log base 2 | 0.28 log base 2 | 0.18 log base 2 | 
DIDO1 | 1.35 log base 2 | 3.36 log base 2 | 0.00 log base 2 | 0.37 log base 2 | 0.18 log base 2 | 
DNA-binding protein A |  |  |  |  |  | Protein Ratios 3xMBT/D355N (3×MBT domain of L3MBTL1; SILAC ratio, 293T cells): 11.1; Protein Ratios DMSO/UNC0638 (G9a and GLP): 1.4
DNA-dependent protein kinase catalytic subunit |  |  |  |  |  | Protein Ratios 3xMBT/D355N (3×MBT domain of L3MBTL1; SILAC ratio, 293T cells): 4.5; Protein Ratios DMSO/UNC0638 (G9a and GLP): 1.5
DNM2 | 0.05 log base 2 | 0.57 log base 2 |  | 0.54 log base 2 | 0.54 log base 2 | 
DNMT1 | 1.70 log base 2 | 2.02 log base 2 | 0.46 log base 2 | −0.19 log base 2 | 0.13 log base 2 | 
